B1: recombinant RIFIN protein (variable region of PF3D7_1254800 with His tag) (ligand)
chain: YETINAFIAKTIEELEGIPGITKLFGAKISQFVTPAVFRKPMSLVETILSEKKKLCLCAANKNELLCRGMNPNVPETLPKKIEVAVNEVLSSVNDTWATATTPTTFFTNP
notes: Used in solution, on plates and on latex or Luminex beads; also called RIFIN-1; RIFIN beads
B2: LILRB1-Fc fusion protein (Fc fusion)
chain: GHLPKPTLWAEPGSVITQGSPVTLRCQGGQETQEYRLYREKKTAPWITRIPQELVKKGQFPIPSITWEHTGRYRCYYGSDTAGRSESSDPLELVVTGAYIKPTLSAQPSPVVNSGGNVTLQCDSQVAFDGFILCKEGEDEHPQCLNSQPHARGSSRAIFSVGPVSPSRRWWYRCYAYDSNSPYEWSLPSDLLELLVLGVSKKPSLSVQPGPIVAPEETLTLQCGSDAGYNRFVLYKDGERDFLQLAGAQPQAGLSQANFTLGPVSRSYGGQYRCYGAHNLSSEWSAPSDPLDILIAGQFYDRVSLSVQPGPTVASGENVTLLCQSQGWMQTFLLTKEGAADDPWRLRSTYQSQKYQAEFPMGPVTSAHAGTYRCYGSQSSKPYLLTHPSDPLELVVSGPSGGPSSPTTGPTSTSAGPEDQPLTPTGSDPQSGLGRHLGV
notes: Made in 293T cells and purified with Protein A. For flow cytometry it was complexed with an APC-labeled anti IgG Fc antibody; not shown: Fc part

Experiments:
[1] = biological target: leukocyte immunoglobulin-like receptor subfamily B member 1 (LILRB1) protein (human, UniProt Q8NHL6 24-650); assay: flow cytometry on LILRB1 protein-expressing 293T cells, APC-labeled anti-His antibody
[2] = biological target: T1, fusion protein containing the conserved region of RIFIN (PF3D7_1254800) and the transmembrane and … (Plasmodium falciparum); assay: flow cytometry on transfected 293T cells
T1 construct: also called fusion protein containing a conserved region

Binder	binding result [1]	binding result [2]
B1	binds	
B2		no binding

From patent US20210187002A1 (OSAKA UNIVERSITY, published 2021)
